Residue numbers refer to the chain shown, from its start.
B1: FR2-13: anti-human FGFR2 rat monoclonal antibody obtained by the method described in Example 1; VH SEQ ID NO: 14, VL SEQ ID NO: 24 (antibody, listed as Rattus norvegicus, V domains shown)
VH: QVKLLQSGAELVKPGASVKLSCKTSGFTFSTSYMSWLKQVPGPSIEWIGWIYAGDGGTKYNQKFKGKATLTVDKSSSTAYMDLSSLTSEDAAVYFCATDGYGDWFAYWGQGTLVTVSS
VL: DIQMTQSPASLSASLGETVTIECRASEDIYSNLAWYQQKPGNSPQLLIYDANILADGVPSRFSGSGSGTQYSLKINSLQSEDVASYFCQQYNNYPPFTFGVGTKLELKRA
B2: FR2-14: anti-human FGFR2 rat monoclonal antibody obtained by the method described in Example 1; VH SEQ ID NO: 16, VL SEQ ID NO: 26 (antibody, listed as Rattus norvegicus, V domains shown)
VH: B1 VH with I45T, S75F, A106T
VL: B1 VL with V101A
B3: FR2-10: anti-human FGFR2 rat monoclonal antibody obtained by the method described in Example 1; VH SEQ ID NO: 12, VL SEQ ID NO: 21 (antibody, listed as Rattus norvegicus, V domains shown)
VH: EVQLVESGGGLVQPGRSLKLSCVASGFRFNDFWMTWIRQAPGKGLEWVASITYTGDNTYYAGSVKGRITISRDNAKSTLYLQMNSLRSEDTATYYCTRDDYGGYSPYYMDAWGQGTSVTVSS
VL: DIQMTQSPSSLSAFLGDRVTITCRASQDIGNYLRWFQQKPGKSPRLMIYGATNLANGVPSRFSGSRSGSDYSLTINNLESEDMAIYYCLKHNEYPFTFGSGTKLEIKRA

Molecular target: T1, human FGFR2 IIIb (Homo sapiens, UniProt P21802)
T1 construct: expressed in transfected cells; host or cells: 293α cells (HEK293 stably transfected with integrin αv and β3)
T1 sequence (P21802 22-822 isoform P21802-3 limits assumed): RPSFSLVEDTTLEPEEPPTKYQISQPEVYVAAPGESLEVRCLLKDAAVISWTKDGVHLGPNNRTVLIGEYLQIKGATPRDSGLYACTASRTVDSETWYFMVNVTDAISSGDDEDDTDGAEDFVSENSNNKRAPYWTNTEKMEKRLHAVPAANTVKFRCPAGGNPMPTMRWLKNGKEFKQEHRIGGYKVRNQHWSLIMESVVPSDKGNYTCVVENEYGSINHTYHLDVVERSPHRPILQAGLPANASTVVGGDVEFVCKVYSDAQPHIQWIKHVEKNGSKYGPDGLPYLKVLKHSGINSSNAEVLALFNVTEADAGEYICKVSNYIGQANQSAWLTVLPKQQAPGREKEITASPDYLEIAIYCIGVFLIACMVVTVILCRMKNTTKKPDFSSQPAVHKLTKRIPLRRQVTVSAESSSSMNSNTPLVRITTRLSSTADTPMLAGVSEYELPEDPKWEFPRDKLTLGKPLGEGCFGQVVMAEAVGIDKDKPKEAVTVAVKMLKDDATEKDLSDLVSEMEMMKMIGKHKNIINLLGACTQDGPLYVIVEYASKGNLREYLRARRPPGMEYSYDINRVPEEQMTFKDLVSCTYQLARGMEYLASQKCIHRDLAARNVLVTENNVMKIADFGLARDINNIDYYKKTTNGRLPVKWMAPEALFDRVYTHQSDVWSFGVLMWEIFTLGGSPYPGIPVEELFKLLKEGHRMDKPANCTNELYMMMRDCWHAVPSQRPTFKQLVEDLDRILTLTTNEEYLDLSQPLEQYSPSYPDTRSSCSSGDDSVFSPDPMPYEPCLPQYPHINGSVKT
Assay: Elk1 luciferase reporter gene assay, FGFR2 IIIb-expressing 293α cells, ligand FGF7
Format: cell-based
Details: antibody preincubated 1 hour; FGF7 10 ng/ml, 6 hours
Protocol: In order to evaluate the signal-neutralizing effect of the anti-FGFR2 antibody produced by each obtained hybridoma, an Elk1 luciferase reporter gene assay system for detecting ERK (extracellular signal-regulated kinase) activation induced by FGFR2 activation via ligand FGF7 stimulation was constructed by a method shown below and used in the evaluation of the obtained antibody for its effect.
The Elk1 luciferase reporter gene assay was carried out using each hybridoma culture supernatant selected in Example 1)-5. A cell line 293α, which was HEK293 cells stably transfected with integrin αv and integrin β3 expression vectors, was transiently cotransfected with pcDNA-DEST40-FGFR2 IIIb or pcDNA-DEST40, pFA2-Elk1 (manufactured by Stratagene Corp.), pFR-Luc2CP, and pGL4.74[hRluc/TK] (manufactured by Promega Corp.) according to transfection procedures using Lipofectamine 2000 (manufactured by Invitrogen Corp.), inoculated to a white 96-well cell culture plate (manufactured by Corning Inc.), and cultured overnight at 37° C. under 5% CO2 conditions. On the next day, the culture supernatant was removed, and the hybridoma culture supernatant diluted 5-fold with DMEM containing 5% FBS was added at a concentration of 50 μl/well to the plate. After culture at 37° C. for 1 hour under 5% CO2 conditions, a ligand human FGF7 (manufactured by R&D systems, Inc.) was added at a final concentration of 10 ng/ml to each well. After incubation for 6 hours, cell lysates were prepared and assayed for firefly luciferase activity (specific signal) and Renilla luciferase activity (signal for normalization) using Dual-luciferase reporter assay system (manufactured by Promega Corp.). The firefly/Renilla ratio was calculated to normalize data on each well.
In order to evaluate the signal-neutralizing effects of the obtained antibodies by the Elk1 luciferase reporter gene assay, 293α cells were cotransfected with pcDNA-DEST40-FGFR2 IIIb or pcDNA-DEST40-FGFR2 IIIc constructed in Example 1)-3-1, pFA2-Elk1 (manufactured by Stratagene Corp.), pFR-Luc2CP, and pGL4.74[hRluc/TK] (manufactured by Promega Corp.) by the method shown in Example 1)-6-2, and cultured overnight at 37° C. under 5% CO2 conditions. On the next day, the culture supernatant was removed, and the cells were then preincubated for 1 hour with the rat FR2-10, FR2-13, or FR2-14 antibody diluted with DMEM containing 2% FBS. Subsequently, a ligand human FGF7 (manufactured by R&D systems, Inc.) or human FGF9 (manufactured by PeproTech Inc.) was added at a final concentration of 10 ng/ml to each well. After incubation for 6 hours, firefly luciferase activity (specific signal) and Renilla luciferase activity (signal for normalization) were assayed using Dual-Glo Luciferase Assay System (manufactured by Promega Corp.). The firefly/Renilla ratio was calculated to normalize data on each well.
In order to evaluate the signal-neutralizing effects of the obtained antibodies by the Elk1 luciferase reporter gene assay, 293α cells were transfected with pcDNA-DEST40-FGFR2 IIIb or pcDNA-DEST40-FGFR2 IIIc constructed in Example 1)-3-1 by the method shown in Example 1)-6-2, and cultured overnight at 37° C. under 5% CO2 conditions. On the next day, the culture supernatant was removed, and the cells were then preincubated for 1 hour with the cFR2-10, cFR2-13, or cFR2-14 antibody (final concentration: 0.05 to 5 μg/ml) diluted with DMEM containing 2% FBS. Subsequently, a ligand human FGF7 (manufactured by R&D systems, Inc.) or human FGF9 (manufactured by PeproTech Inc.) was added at a final concentration of 10 ng/ml to each well. After incubation for 6 hours, cell lysates were prepared and assayed for firefly luciferase activity (specific signal) and Renilla luciferase activity (signal for normalization) using Dual-luciferase reporter assay system (manufactured by Promega Corp.). The firefly/Renilla ratio was calculated to normalize data on each well. […]

ligand FGF7 dependent reporter activation in the FGFR2 IIIb-expressing cells	Molecule
inhibited	B1
inhibited	B2
inhibited	B3

Same assay, conditions: hybridoma culture supernatant diluted 5-fold; FGF7 10 ng/ml

Molecule	ligand FGF7 dependent reporter activation in FGFR2-expressing HEK293 reporter cells (screening)
B1	reduced ligand FGF7 dependent reporter activation to a ligand-free level
B2	reduced ligand FGF7 dependent reporter activation to a ligand-free level
B3	reduced ligand FGF7 dependent reporter activation to a ligand-free level

Molecular target: T2, human FGFR2 (Homo sapiens, UniProt P21802)
T2 construct: expressed in transfected cells; host or cells: HEK293T cells
T2 sequence (P21802 22-822 isoform P21802-3): as the sequence (P21802 22-822 isoform P21802-3 limits assumed) above
Assay: Flow cytometry, selective binding to human FGFR expression vector-transfected HEK293T cells
Details: hybridoma culture supernatant, FGFR1 IIIc, FGFR2 IIIb, FGFR3 IIIb, FGFR4 transfectants
Protocol: HEK293T cells were inoculated at a density of 5×10^4 cells/cm^2 to a 225-cm^2 flask (manufactured by Sumitomo Bakelite Co., Ltd.) and cultured overnight at 37° C. under 5% CO2 conditions in a DMEM medium containing 10% FBS. On the next day, the pcDNA-DEST40-FGFR2 IIIb IgD1-deletion mutant deficient in the N-terminal IgD1 domain or a control pcDNA-DEST40 was transfected to the HEK293T cells using Lipofectamine 2000, and the cells were further cultured overnight at 37° C. under 5% CO2 conditions. On the next day, the expression vector-transfected HEK293T cells were treated with TrypLE Express (manufactured by Life Technologies Corp.), washed with DMEM containing 10% FBS, and then suspended in PBS containing 5% FBS. The obtained cell suspension was used in flow cytometry analysis.
cDNAs encoding a human FGFR1 IIIc variant protein (isoform 1: NP_075598), a human FGFR3 IIIb variant protein (isoform 3: NP_001156685), a human FGFR3 IIIc variant protein (isoform 1: NP_000133), and a human FGFR4 protein (isoform 1: NP_002002) were cloned into pcDNA-DEST40 vectors to construct vectors pcDNA-DEST40-FGFR1 IIIc, pcDNA-DEST40-FGFR3 IIIb, pcDNA-DEST40-FGFR3 IIIc, and pcDNA-DEST40-FGFR4 for expression of each variant protein, respectively.
Each human FGFR expression vector constructed in Examples 1)-3-1 and 2)-1-1 was transfected to HEK293T cells by the method shown in Example 1)-5-1. The cell suspension was centrifuged to remove the supernatant. Then, these various human FGFR expression vector-transfected HEK293T cells and the pcDNA-DEST40-transfected HEK293T cells were separately suspended by the addition of the hybridoma culture supernatant containing the FR2-10, FR2-13, or FR2-14 antibody and left standing at 4° C. for 1 hour. […] The data was analyzed using Flowjo (manufactured by Tree Star Inc.). After removal of 7-aminoactinomycin D-positive dead cells by gating, the FITC fluorescence intensity of live cells was plotted to a histogram to calculate average fluorescence intensity (MFI).

Molecule	selective binding activity against human FGFR2
B1	selectively bind to both human FGFR2 IIIb and FGFR2 IIIc
B2	selectively bind to both human FGFR2 IIIb and FGFR2 IIIc
B3	selectively bind to human FGFR2 IIIb

— patent publication US9931401B2, “Combination comprising anti-fibroblast growth factor receptor 2 (FGFR2) antibody and a tyrosine kinase inhibitor” (Daiichi Sankyo Company, Limited, priority 2013, dated 2018)
